According to the DeepSol protein solubility set:

experiment: soluble on expression in E. coli; label from the status in PepcDB or PDB records

| Sequence | soluble on expression in E. coli |
| --- | --- |
| MPKGGPSGLSPVYAGIREDLDTLLRAYLQFKSVRFYDYKMMFERRGMVDIFNGRSESSEIIEFNEHLLVQCLSYMEEEACPGMPRSLKERLFGLYSLYTFFFIQQESHVVQIRMNPDCARNFRKFAQFLLVEKIYDAYVHDPCYAKSNQTDEKSHGVPVLANLNDPLCRVKALTEQFDMLGVIHREYSKLKDKFGITGNPLNDPTEILSRVIEKNLKAIEDSAIEKVFDVDQDEQSSVDALSSDGDDEETEKDPDIAENDDNVEETIEPSLPSRKRKRKRRQSKTVPISDPEVLDDLFAREILRDNQPTTSDDSAQRMNVDSKIVPGRKKSRKMSAKKAKINLPRIVKSEQIPPLRGIMKNEDLNNSESCIHENVDIVLTQSDSLKNEIKSEIVALNSSTKTSFKSSRRVSFREKENGELDNTIHEIPRRCHSSDESDEENSDEDPVAESSHRPHLTIQLKPIHEKYETSISMNLIYMKNKEKLISADDFNIFKPVEGAEETFETPFDSLIPEDIDSDDEI | not soluble |
| MGFHLRGLGGSLKPLPFSTMYLEATGKSIEADLRTVFARDPKLSVMSEPKGAQAVVSVVSENQSKDILTINTGGRINEYQLTYTVVVRTVIGGVPVDPDMVVTVRRSLNYSDNQVLGKQQEEDLLWADARRDAAEQIVRRLAYLKVPAAPLAGPVSVKPDAVPQPLEHHHHHH | soluble |
| MGSDKIHHHHHHMVQTPSKPITLDEFLKLPETEPASEYIEGKIIQKPMPQGKHSAIQSECVSVINSVVKPQRIARAFLELRCTFGDHSTVPDISVFIWSRIPREENGEIANIFLIAPDWTIEILSPDQSQTKVTKNILHCLKHGTQMGWLIDPDEQTVFVYRPQQETEVFDEPDALVPVPSFASELHLSIKDLFSWLL | not soluble |
| MGSDKIHHHHHHMASPINESRIGYLYEAVRSGTVRAAADYLDVAPSAVSRQIALLEEELAIALVERNKRGVRPTEAGALLIEYFRQQRSHQGDLVAKLQEIRGLRRGTIVVVMGEGFASTMVGGPIKQFCEAYPEISITMDLCSTNEVMRRVSEDEADIGLVFNPSSDSKIVSRAGSRQPMHAIVSPAFPLVGKVKSVTLQDLMPYPMALTHPEHGTRRLVDAAMLLDKVRLTPAITTNSVNVLKLFAKSNLGFTLLAPIAIAPELAAGELVALPVDNRLLESSEAHLVTRAGRQLSPAANRLLNRLKAQIHKYDEYGAESGGQASLATQ | not soluble |
| MSLTQHTLWLLRFTYKQLKEKLTVSDSKKLFHEQFPYVIPGLYKRIVDEMLVELNLLNHQNEFIQDDLFCVGLTETFKELTKGYKPEEHLRVLFESLCNSSNFEPKKIKEASKKTLEVYKDKSLKEISILLKQKSDSNLYSSRIMNLGIYLIIANATDFKDIKDPEKNKIISDIINKLNLSFNKAEKDIGIYKSSILKMEQAKELLQEAKIKDKKEKEGHHHHHH | not soluble |
| ADCSSDLTSGISTKRIYYVAPNGNSSNNGSSFNAPMSFSAAMAAVNPGELILLKPGTYTIPYTQGKGNTITFNKSGKDGAPIYVAAANCGRAVFDFSFPDSQWVQASYGFYVTGDYWYFKGVEVTRAGYQGAYVIGSHNTFENTAFHHNRNTGLEINNGGSYNTVINSDAYRNYDPKKNGSMADGFGPKQKQGPGNRFVGCRAWENSDDGFDLFDSPQKVVIENSWAFRNGINYWNDSAFAGNGNGFKLGGNQAVGNHRITRSVAFGNVSKGFDQNNNAGGVTVINNTSYKNGINYGFGSNVQSGQKHYFRNNVSLSASVTVSNADAKSNSWDTGPAASASDFVSLDTSLATVSRDNDGTLPETSLFRLSANSKLINAGTKESNISYSGSAPDLGAFERN | soluble |
| MGSDKIHHHHHHMDPTTMPAPAPINYSQTWTFFEGEWHDGNVPIMGPRTHAAWLGSMVFDGARAFEGVTPDLDQHLARINWSATNFKLNALVDKATWLGLVQDGLKRFAGNAELYIRPMYWAQNGVGGGVLFDPDTTNWCLCIYEAPMPKPTGLSITLSPFRRPTAECAPVEAKAGCLYPNNSRAMMEAKSRGFDNCLLRDMLGHIAELGNSNIFMAKDGVVYTPAANGTFLSGITRQRVIELLRGDGITVLETSLSYRDFETADEIFASGNFAKVQPIIRIDDRSLQPGPFYAKARKLYWEFAHG | not soluble |
| MGSDKIHHHHHHMHHWESLVGEQAIPFFRWRWLAALEDSSSISAKHGWQPLHLALWRDDMPVAVAPLYLKGHSYGEFVFDQAFARLAGDLGLGYYPKLLGMSPVSPVQGYRFYVAPGENEAELTVLMLETIDAFARRNQILSCNFLYVDPHWRPLAEAAGCATWLNQQSLWSADGQSDFSAYLNSFNANQRRNIKRERKAVQQAGLTVSALTGVELDVQLLRCMHGFYEQHCARWGPWGSKYLSEAFFEALADSSLRDQVVLFSAHRVSPREPVAMSLCIQDGQMLWGRYWGSKEEIDCLHFEVCYYAPIAWALENGLENFDPGAGGQHKRRRGFVAKPHASLHRWYEPRMDALIRGWLRKVNPLMLEEIESANADLPFRVEPAPQLIVE | not soluble |
| SAELQEVQITEEKPLLPGQTPEAAKEAELAARILLDQGQTHSVETPYVSVTFTVYGTPKPKRPAILTYHDVGLNYKSCFQPLFQFEDMQEIIQNFVRVHVDAPGMEEGAPVFPLGYQYPSLDQLADMIPCVLQYLNFSTIIGVGVGAGAYILARYALNHPDTVEGLVLINIDPNAKGWMDWAAHKLTGLTSSIPEMILGHLFSQEELSGNSELIQKYRNIITHAPNLDNIELYWNSYNNRRDLNFERGGDITLRCPVMLVVECNSKLDPTQTSFLKMADSGGQPQLTQPGKLTEAFKYFLQGMGYMASSCMTRLSRSRTASLTSAASVDGNRSRSRTLSQSSESGTLSSGPPGHTMEVSC | not soluble |
| MSEYREIITKAVVAKGRKFTQCTNTISPEKKPSSILGGWIINHKYDAEKIGKTVEIEGYYDINVWYSYADNTKTEVVTERVKYVDVIKLRYRDNNYLDDEHEVIAKVLQQPNCLEVTISPNGNKIVVQAEREFLAEVVGETKVVVEVNPDWEEDDEEDWEDELDEELEDINPEFLVGDPEELEHHHHHH | soluble |
| MLGSRNIKFSVQIFKKRRSNCNVRCVVCGREIETGSLCGKCMVEKEEVAKIDEFEITVCSRCNLIRLGNRWVERSVEEVIEEMVLRNARVVEEFNVTEVAISQEHCVFRGEISGDEVKILVPLKYRINKVLCEKCSREAGGYYESIVQLRAAGRELSDEEIEKALEIVDEVISSAPEDQKAFISKLERKREGVNIFFGSRNIGKKVSRMIMKKLGGSITESKKLHTRIDGRDVYRFTYSVKLPEYREGDIVEKEGRFAVVRNSVAGKGLDILTGKTVNLGNERVAVRREDLKSGVVVNADPNAVEVVCEDGRLVTTPKPSGAEIGAEVKVFEINGKFFSVYEGGQSSEELEHHHHHH | soluble |
| MNNAMQLLQPYPFKKLRALLGSVTPNPEKRPVALSIGEPKHRSPDFVAKALADNLDQMAVYPTTLGIPALREAIAGWCNRRFGVPQGWIDPARNVLPVNGTREALFAFTQTVVNRSDDGLVVSPNPFYQIYEGAAFLAGAQPHYLPCLSDNGFNPDFDAVDADIWKRCQILFLCSPGNPTGALIPVETLKKLIALADEHDFVIAADECYSELYFDEQTPPPGLLSACVELGRQDFKRCVVFHSLSKRSNLPGLRSGFVAGDAEILKAFLLYRTYHGCAMPVQTQLASIAAWNDEEHVRANRDLYREKFDAVLDILAPVLDVQRPDGGFYLWPNVGTDDAAFCRDLFVDQHVTAVPGSYLSREVDGVNPGAGRVRLALVAPLAECIEAAERIRAFVLK | not soluble |
| MARLFTLSESKYYLMALDAGTGSIRAVIFDLEGNQIAVGQAEWRHLAVPDVPGSMEFDLNKNWQLACECMRQALHNAGIAPEYIAAVSACSMREGIVLYNNEGAPIWACANVDARAAREVSELKELHNNTFENEVYRATGQTLALSAIPRLLWLAHHRSDIYRQASTITMISDWLAYMLSGELAVDPSNAGTTGLLDLTTRDWKPALLDMAGLRADILSPVKETGTLLGVVSSQAAELCGLKAGTPVVVGGGDVQLGCLGLGVVRPAQTAVLGGTFWQQVVNLAAPVTDPEMNVRVNPHVIPGMVQAESISFFTGLTMRWFRDAFCAEEKLIAERLGIDTYTLLEEMASRVPPGSWGVMPIFSDRMRFKTWYHAAPSFINLSIDPDKCNKATLFRALEENAAIVSACNLQQIADFSNIHPSSLVFAGGGSKGKLWSQILADVSGLPVNIPVVKEATALGCAIAAGVGAGIFSSMAETGERLVRWERTHTPDPEKHELYQDSRDKWQAVYQDQLGLVDHGLTTSLWKAPGL | not soluble |
| GINLTPEEKFEVFGDFDPDQYEEEVRERWGNTDAYRQSKEKTASYTKEDWQRIQDEADELTRRFVALMDAGEPADSEGAMDAAEDHRQGIARNHYDCGYEMHTCLGEMYVSDERFTRNIDAAKPGLAAYMRDAILANAVRHTP | soluble |
| MSQLMNAHDRRNEPAPNAPPEFQLQNRTRPAPTPIEYITLSSDDEIEVIPPPPKRAKMMEEQKPKDLLENPQLPEVPSSSASFVIPQIVVDNEEVPEDPRMKTPSPIQGASVAMPVRARIQESPKVSRDPTPLSRASSVVIPEVPAVSEPEPLPVEVLAISIPTTSPDTAPSTSSSVETVESVTEVVAISSAEASSDAPARSPLKKKVANSVKPVVLPSRKSTRNKKDMNQIKEDEELVSNFNNGIGVISRGTIVPRGLSRTPFHFKKEATDDKAGKVKDMLKIDMQPVFTPAGHSSKDLIKRKARNSLEPSTSDADISFMKNERGKIRTGEKFQATIPDIEPSSTLTEYMDQEDKEEIFWETLDMDKDNLEESKKFHETLRNVYWRAIWRQFQGHIPFETALQHLMKNNLDFAQSLETIDENLKSLPQSFKEPCVAQVKIFDKLLQDKKTTRRQLQEKAMRNYHIAEVQQYHYRFRKFFKYQEKYGVVCNCAEKLCNNLKFEPRYGCTNCKKNVKSSSDHGATEKLCLICQTYQKLTGNVRPARNVEFCDDELEKIYHWSQKEEDLNRTLSREEFEELVREEKNKKWKNNDLSAEETAMLNQKELRIPNRRHRTHLSDQEKQARGEKICAQLQPYVLPHFSKCNCKRMGRSSWRCETEGKSSFSIQERKDYFREVRDCKGDLQQVARNLKVAPEVVRAFINIYGIEYDLEIYFPNKKLPNLIPIVYDIPPSNLPPIIPDGSSNSSSRDGSPYIPPEERSPKKRRSN | not soluble |
| SSYADFVWFLISEEDKRNPTSIEYWFRCMDVDGDGILSMYELEYFYEEQCERMEAMGIEPLPFHDLLCQMLDLVKPASDGRITLRDLKRCRMAHIFYDTFFNLEKYLDHEQRDPFAVQKDVENDGPEPSDWDRFAAEEYEALVTEESAQVQLQEGSFEDYESDEPVSPSELGNKGNKIVTSSLSEKCGKLQSVDEE | soluble |
| SILATPILIPENQRPPFPRSVGKVIRSEGTEGAKFRLSGKGVDQDPKGIFRINEISGDVSVTRPLDREAIANYQLEVEVTDLSGKIIDGPVRLDISVIDQNDNRPMFKEGPYVGHVMEGSPTGTTVMRMTAFDADDPSTDNALLRYNILKQTPTKPSPNMFYIDPEKGDIVTVVSPVLLDRETMETPKYELVIEAKDMGGHDVGLTGTATATILIDD | soluble |
| AHHHHHHGSKKKYKKVVVGGTFDRLHLGHKALLRKAFEVGEIVYIGLTSDEMIKEKQYSERILPYEKRLLDLIKFLEVNKYRNYRIMKIHNAIGFTTKIKSLEAIVVSEETYKGAVLVNKAREELGLRPLDIVVIPIIRSRLGCKISSSLIRAGLIDPFGNPIRREEK | not soluble |
| MKEKIPFYNEKEFNEMMKKTKKGTFSGWYIINPENKSVEFSGNFNRQFKLNKPVIPVNTEYVTRKEFNEYKDSNDQRLTKIENKVDKLEVKVDKLEEKVDKLEAKVDKLEEKVDKLEAKVDKLEEKVDKLEAKVDSGFEMLAKILAAINKRLDSIEGRLDKIEPPKLEHHHHHH | not soluble |
| MVLKSKGSVLDLEHDNQTLKDYISVFERNKMRLTQSRLMLLQCLVQHRDWHTLAELKHHLEQNQQRTTLASIYNNLKIFAKLKLINIFVDTNRFETYYCLRHENHKHIYFFDENQRKFLTLPLQDKEALSLIGHKSKHGKIKLNDFYIVASGTLEDDQ | soluble |
